Read-outs that look alike come from different tables or passages of the source.
Assays:
[1] = biological target: T1, Botulinum neurotoxin type A (Xeomin) (Clostridium botulinum serotype A, UniProt P0DPI1 2-1296)
T1 sequence (P0DPI1 2-1296): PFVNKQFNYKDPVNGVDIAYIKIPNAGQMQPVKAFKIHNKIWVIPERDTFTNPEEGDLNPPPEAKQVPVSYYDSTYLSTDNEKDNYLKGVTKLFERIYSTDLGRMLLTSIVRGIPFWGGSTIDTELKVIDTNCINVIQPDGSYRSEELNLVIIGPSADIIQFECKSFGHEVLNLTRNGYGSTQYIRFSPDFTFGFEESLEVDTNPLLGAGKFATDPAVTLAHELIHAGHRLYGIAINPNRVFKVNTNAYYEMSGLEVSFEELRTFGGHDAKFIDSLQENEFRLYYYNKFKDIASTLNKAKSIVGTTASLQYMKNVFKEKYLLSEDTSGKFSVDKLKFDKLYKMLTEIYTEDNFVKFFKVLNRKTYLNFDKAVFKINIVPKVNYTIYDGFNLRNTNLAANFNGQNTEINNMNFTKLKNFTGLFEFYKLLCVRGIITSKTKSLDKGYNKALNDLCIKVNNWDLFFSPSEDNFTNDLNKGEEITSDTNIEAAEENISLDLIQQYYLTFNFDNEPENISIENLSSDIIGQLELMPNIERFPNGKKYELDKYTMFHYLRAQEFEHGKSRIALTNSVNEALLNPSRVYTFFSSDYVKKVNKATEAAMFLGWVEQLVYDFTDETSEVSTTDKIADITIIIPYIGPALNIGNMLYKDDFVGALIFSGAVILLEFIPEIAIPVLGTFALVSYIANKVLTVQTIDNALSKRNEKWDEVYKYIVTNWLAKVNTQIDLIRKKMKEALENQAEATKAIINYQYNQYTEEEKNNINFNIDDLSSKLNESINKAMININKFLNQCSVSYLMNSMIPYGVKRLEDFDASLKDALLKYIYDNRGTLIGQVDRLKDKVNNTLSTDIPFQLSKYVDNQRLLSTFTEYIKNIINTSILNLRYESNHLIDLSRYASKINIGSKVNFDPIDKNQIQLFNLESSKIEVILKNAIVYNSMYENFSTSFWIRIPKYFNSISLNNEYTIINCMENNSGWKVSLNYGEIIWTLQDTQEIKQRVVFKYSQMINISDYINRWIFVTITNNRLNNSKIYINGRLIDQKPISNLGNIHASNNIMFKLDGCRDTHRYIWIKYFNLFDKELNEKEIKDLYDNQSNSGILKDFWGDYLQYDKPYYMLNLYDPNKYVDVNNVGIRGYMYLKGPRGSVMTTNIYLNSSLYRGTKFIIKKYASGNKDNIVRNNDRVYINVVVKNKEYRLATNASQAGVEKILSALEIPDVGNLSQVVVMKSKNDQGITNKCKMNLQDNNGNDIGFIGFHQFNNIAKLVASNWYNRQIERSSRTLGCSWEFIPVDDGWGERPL

[2] = biological target: T1, Botulinum neurotoxin type A (Xeomin); experiment: BLI; details: protein: commercial
[3] = biological target: Botulinum neurotoxin type A (Xeomin) (Clostridium botulinum serotype A, UniProt P0DPI1 2-1296); experiment: SERS aptasensor; details: protein: commercial; label: 3' TAMRA
Target sequence in this assay (P0DPI1 2-1296): as above

B1: SH-H8-TAMRA (ssDNA)
DNA: AGTGCGGTGAGCCGTCGGACATACAAATAC
binding result [1]: no binding

B2: Apt_2.22 (structured_DNA)
DNA: ATACCAGCTTATTCAATTGACATGACTGGGATTTTTGGCGAAATCGAAGGAAGCGGAGAGATAGTAAGTGCAATCT
Kd [2]: 7 ± 4 nM

B3: Apt_2.22_mod (structured_DNA)
DNA: B2 DNA
modifications: 5' SH-(CH2)6
binding result [3]: binds

— article PMC10535226, “Rapid SERS Detection of Botulinum Neurotoxin Type A”
